The results in this text go back to the Immune Epitope Database (IEDB).

Common to all, as to experiment: IEDB peptide-MHC binding, purified MHC/competitive/radioactivity; ≥ and ≤ were set here for values at or beyond the usual limits of such assays
Conditions in all cases: source organism: hepatitis C virus genotype 1a

The target in test [1] is HLA-A*02:01.
For test [2], the target named is HLA-B*07:02.
Test [3] addresses HLA-B*08:01.
For test [4], the target named is HLA-B*40:01.
Test [5] deals with HLA-B*40:02.

By IC50 is commonly meant the concentration at which inhibition is half-maximal.

Regarding FLVGQLFTF, the IC50 in test [1] is 67 nM.

Consider GVDPNIRTGV, for which the IC50 in test [1] is 351 nM. In the case of HPALVFDIT, the IC50 in test [2] was found to be 160 nM. As to HSKKKCDEL, the IC50 in test [3] came to 764 nM. Regarding IPFYGKAI, in test [2], the IC50 was determined as 497 nM.

For the sequence LEDRDRSEL, the IC50 stood at 426 nM in test [4] and 4270 nM in test [5]. In the case of RLWHYPCTV, the IC50 in test [1] was determined as 12 nM. As for RPALVFDIT, the IC50 in test [2] came out at 43 nM. SLLAPGAKQNV: the IC50 in test [1] stood at 513 nM. Still for that read-out and setting: to VLSDFKTWL belongs 305 nM.
